For test [1], the target named is T1, GST-N protein (MHV N protein as a GST fusion construct) (mouse hepatitis virus (MHV-A59), UniProt P03416 1-454).
T1 sequence: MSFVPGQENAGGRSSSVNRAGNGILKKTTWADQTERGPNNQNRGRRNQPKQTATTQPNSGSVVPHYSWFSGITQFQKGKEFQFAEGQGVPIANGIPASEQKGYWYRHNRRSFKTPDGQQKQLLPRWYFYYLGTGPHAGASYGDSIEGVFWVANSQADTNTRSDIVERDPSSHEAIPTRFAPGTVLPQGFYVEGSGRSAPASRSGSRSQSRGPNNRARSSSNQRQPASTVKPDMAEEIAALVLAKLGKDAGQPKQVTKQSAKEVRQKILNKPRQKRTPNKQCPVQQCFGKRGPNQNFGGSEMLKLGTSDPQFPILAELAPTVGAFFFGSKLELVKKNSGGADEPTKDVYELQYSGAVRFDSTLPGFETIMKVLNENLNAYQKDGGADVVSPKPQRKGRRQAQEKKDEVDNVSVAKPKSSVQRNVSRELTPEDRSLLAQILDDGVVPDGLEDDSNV
As to the kind of experiment: pull-down. The settings on record: one partner purified.

Test [2] addresses T2, 6xHis-tagged N2b-N3 truncation of MHV N protein (mouse hepatitis virus (MHV-A59), UniProt P03416 258-454).
T2 sequence: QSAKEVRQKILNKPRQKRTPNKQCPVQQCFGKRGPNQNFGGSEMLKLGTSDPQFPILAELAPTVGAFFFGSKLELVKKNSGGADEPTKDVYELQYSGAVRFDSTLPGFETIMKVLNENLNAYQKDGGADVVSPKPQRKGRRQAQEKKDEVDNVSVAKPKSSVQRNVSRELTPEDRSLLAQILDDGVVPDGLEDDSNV
In words: pull-down. Particulars: one partner purified.

The values that follow come from paper PMC5515880 (Scientific Reports, 2017).

B1: 6xHis-tagged full length MHV N protein (natural protein)
chain: MSFVPGQENAGGRSSSVNRAGNGILKKTTWADQTERGPNNQNRGRRNQPKQTATTQPNSGSVVPHYSWFSGITQFQKGKEFQFAEGQGVPIANGIPASEQKGYWYRHNRRSFKTPDGQQKQLLPRWYFYYLGTGPHAGASYGDSIEGVFWVANSQADTNTRSDIVERDPSSHEAIPTRFAPGTVLPQGFYVEGSGRSAPASRSGSRSQSRGPNNRARSSSNQRQPASTVKPDMAEEIAALVLAKLGKDAGQPKQVTKQSAKEVRQKILNKPRQKRTPNKQCPVQQCFGKRGPNQNFGGSEMLKLGTSDPQFPILAELAPTVGAFFFGSKLELVKKNSGGADEPTKDVYELQYSGAVRFDSTLPGFETIMKVLNENLNAYQKDGGADVVSPKPQRKGRRQAQEKKDEVDNVSVAKPKSSVQRNVSRELTPEDRSLLAQILDDGVVPDGLEDDSNV
Take B1: the binding result in test [1] is reported as “binds”.

B2: GST-N1 (MHV N protein truncation) (domain or fragment)
chain: MSFVPGQENAGGRSSSVNRAGNGILKKTTWADQTERGPNNQNRGRRNQPKQTATTQPNSGSVVPHYSWFSGITQFQKGKEFQFAEGQGVPIANGIPASEQKGYWYRHNRRSFKTPDGQQKQLLPRWYFYYLGTGPHAGASYGDSIEGVFWVANSQADTNTRSDIVERDPSSHEAIPTRFAPGTVLPQGFYVEGS
As for B2, in test [2], the binding result is recorded as “binds”.
